Assay results as given in paper PMC11538506.

Molecular target: DDX3X WT (MBP) (UniProt O00571 1-662)
Assay: time-resolved fluorescence anisotropy

DDX3X WT (MBP), sequence (O00571 whole entry): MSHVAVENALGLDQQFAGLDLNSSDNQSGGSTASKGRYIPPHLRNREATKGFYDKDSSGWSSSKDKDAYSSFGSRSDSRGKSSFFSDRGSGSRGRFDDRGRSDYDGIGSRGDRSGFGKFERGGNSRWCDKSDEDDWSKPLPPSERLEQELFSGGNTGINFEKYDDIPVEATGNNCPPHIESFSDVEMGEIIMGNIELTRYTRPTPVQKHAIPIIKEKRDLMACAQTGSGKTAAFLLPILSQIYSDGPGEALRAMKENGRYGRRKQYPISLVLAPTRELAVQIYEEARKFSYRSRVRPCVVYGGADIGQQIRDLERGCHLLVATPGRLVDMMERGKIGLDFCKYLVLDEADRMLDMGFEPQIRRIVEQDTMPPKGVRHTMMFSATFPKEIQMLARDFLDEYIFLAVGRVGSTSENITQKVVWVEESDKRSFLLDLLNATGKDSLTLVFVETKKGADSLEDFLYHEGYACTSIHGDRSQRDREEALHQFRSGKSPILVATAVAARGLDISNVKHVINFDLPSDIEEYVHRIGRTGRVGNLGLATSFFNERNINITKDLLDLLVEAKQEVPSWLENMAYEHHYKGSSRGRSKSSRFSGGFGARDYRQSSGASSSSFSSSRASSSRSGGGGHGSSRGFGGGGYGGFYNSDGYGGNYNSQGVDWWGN

B1: dsRNA anisotropy probe (18/42-mer) (dsRNA)
RNA 1: ACCGCUGCCGUCGCUCCG
RNA 2: UUUUUUUUUUUUUUUUUUUUUUUUCGGAGCGACGGCAGCGGU
binding result: binds
